Experimental data taken from paper PMC6929985, “Allosteric regulation of protein 14-3-3ζ scaffold by small-molecule editing modulates histone H3 post-translational modifications” (Theranostics, 2020).
Changes are numbered by the printed parent chain. In names and notes the source's numbering stands. Each block holds one binder with its values, some of them ahead of it.

Columns and labels:
[1] = molecular target: T1, recombinant human 14-3-3ζ protein (human), P63104; assay: AUC; 'sedimentation equilibration analysis'; 25 μM 14-3-3ζ incubated with or without PTA at 25 °C for 8 h, centrifuged at 20 °C and 60000 rpm for 7 h; c(s) by SEDPHAT; monomer to dimer; conditions: remark: other sources report otherwise
T1 chain: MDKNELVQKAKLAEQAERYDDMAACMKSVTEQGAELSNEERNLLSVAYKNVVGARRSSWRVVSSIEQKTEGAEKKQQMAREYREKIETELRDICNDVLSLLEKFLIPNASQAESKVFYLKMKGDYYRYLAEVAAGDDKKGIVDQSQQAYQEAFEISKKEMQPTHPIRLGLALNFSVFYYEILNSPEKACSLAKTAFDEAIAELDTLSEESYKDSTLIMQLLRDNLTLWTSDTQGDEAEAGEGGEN

[2] = molecular target: the molecule itself; assay: cross-linking; 0.025 mM 14-3-3ζ incubated with or without PTA at 25 °C for 8 h, cross-linked with 1 mM disuccinimidyl suberate for 30 min (20 mM HEPES, 100 mM KCl, 1 mM dithiothreitol, pH 8.0), quenched with 50 mM Tris-HCl; SDS-PAGE with silver staining, and LC-MS

- percent dimer (with PTA) [1]: 77.5%
- percent dimer (without PTA) [1]: 69.1%
- stoichiometry N [1]: 2
B1: recombinant human 14-3-3ζ protein, P63104 1-245 (natural protein)
chain: T1 chain

B2: 14-3-3ζ mutant (K158R) (natural protein, UniProt P63104 1-245, looked up)
chain: T1 chain with K158R
notes: 14-3-3ζ with K158R
- binding result [2]: binds
